Results reported in patent publication US9212226B2, “Amino acid sequences directed against CXCR4 and other GPCRs and compounds comprising the same” (Ablynx N.V., priority 2008, dated 2015).
Marks after values point to notes of the source that are not given here.

B1: 238D2-20GS-238C5 (protein)
chain: EVQLVESGGGLVQTGGSLRLSCAASGFTFSSYAMSWVRQAPGKGLEWVSGIKSSGDSTRYAGSVKGRFTISRDNAKNMLYLQMYSLKPEDTAVYYCAKSRVSRTGLYTYDNRGQGTQVTVSSGGGGSGGGGSGGGGSGGGGSEVQLMESGGGLVQAGGSLRLACAASGFTFEDYAIGWFRKAPGKEREGVSCISGSDGSTTYADSVKGRFTISTDNAKNTVYLEMNSLKPEDTAVYYCAQQYGVGGRVVCPGPYEYDVWGQGTQVTVSS
modifications: Nanobody, Nanobody constructs or fragments thereof
B2: 238D2-10GS-238D2: bivalent Nanobody, 238D2 linked to 238D2 by a 10 amino acid GGGGS linker (protein)
chain: EVQLVESGGGLVQTGGSLRLSCAASGFTFSSYAMSWVRQAPGKGLEWVSGIKSSGDSTRYAGSVKGRFTISRDNAKNMLYLQMYSLKPEDTAVYYCAKSRVSRTGLYTYDNRGQGTQVTVSSGGGGSGGGGSEVQLVESGGGLVQTGGSLRLSCAASGFTFSSYAMSWVRQAPGKGLEWVSGIKSSGDSTRYAGSVKGRFTISRDNAKNMLYLQMYSLKPEDTAVYYCAKSRVSRTGLYTYDNRGQGTQVTVSS
modifications: Nanobody, Nanobody constructs or fragments thereof
notes: bivalent Nanobody, 238D2 linked to 238D2 by a 10 amino acid GGGGS linker
B3: 238D2-20GS-238B10 (protein)
chain: EVQLVESGGGLVQTGGSLRLSCAASGFTFSSYAMSWVRQAPGKGLEWVSGIKSSGDSTRYAGSVKGRFTISRDNAKNMLYLQMYSLKPEDTAVYYCAKSRVSRTGLYTYDNRGQGTQVTVSSGGGGSGGGGSGGGGSGGGGSEVQLVESGGGFVQAGGSLRLSCETSGRPLLGYTIAWFRQVPGKEREFVAYHRWSDGANLYADSVKGRFTISGHNAKNTVSLQMNSLKPEDTAVYYCAAARMTTSNDKEYLYWGQGTQVTVSS
B4: 237D1: Nanobody (VHH) raised against human CXCR4, SEQ ID NO: 249 (protein)
VHH: EVQLVESGGGLAQPGGPLRLTCEASGVIYSVNDMGWYRQAPGKQRELVAVITSGGGTNYVDSVKGRFTISGDNRKKTVYLQMNSLKPEDTAVYYCSIYYSSGISTLRSWGQGTQVTVSS
modifications: Nanobody, Nanobody constructs or fragments thereof
B5: 237A6: Nanobody (VHH) raised against human CXCR4, SEQ ID NO: 248 (protein)
VHH: EVQLVESGGGLVQAGGSLRLSCAASGSIFSLNAMGWYRQAPGKQRELVAGITSSTSTYYADSVKGRFTISRDNTKNTVYLQMNSLKPEDTAVYYCNVDCPDYYSDYECPLEDRGQGTQVTVSS
modifications: Nanobody, Nanobody constructs or fragments thereof
B6: 237G7: Nanobody (VHH) raised against human CXCR4, SEQ ID NO: 251 (protein)
VHH: EVQLVESGGGLVQPGGSLRLSCAASSFIGNYHAIVWLRQAPGKELEGVSCITSRDSITYYASFVKGRFTISRDDAKNTVYLQMNNLKPEDTAVYYCAVBTSMTCPTLIVRFNYRGQGTQVTVSS
modifications: Nanobody, Nanobody constructs or fragments thereof
B7: 237D2: Nanobody (VHH) raised against human CXCR4, SEQ ID NO: 241 (protein)
VHH: EVQLVESGGGLVQPGGSLRLSCAASGFTFDDYAMSWVRQAPGKGLEWVSAISWNGGSTDYADSVKGRFTISRDNAKNTLYLQMNSLKSEDTAEYYCARDQGPFYSGTYYYTRQYGYRGQGTQVTVSS
modifications: Nanobody, Nanobody constructs or fragments thereof
B8: 238B10: Nanobody (VHH) raised against human CXCR4, SEQ ID NO: 242 (protein)
VHH: EVQLVESGGGFVQAGGSLRLSCETSGRPLLGYTIAWFRQVPGKEREFVAYHRWSDGANLYADSVKGRFTISGHNAKNTVSLQMNSLKPEDTAVYYCAAARMTTSNDKEYLYWGQGTQVTVSS
modifications: Nanobody, Nanobody constructs or fragments thereof
B9: 238D4-20GS-238D4: bivalent Nanobody, 238D4 linked to 238D4 by a 20 amino acid GGGGS linker (protein)
chain: EVQLMESGGGLVQAGGSLRLSCAASGRTFNNYAMGWFRRAPGKEREFVAAITRSGVRSGVSAIYGDSVKDRFTISRDNAKNTLYLQMNSLKPEDTAVYTCAASAIGSGALRRFEYDYSGQGTQVTVSSGGGGSGGGGSGGGGSGGGGSEVQLMESGGGLVQAGGSLRLSCAASGRTFNNYAMGWFRRAPGKEREFVAAITRSGVRSGVSAIYGDSVKDRFTISRDNAKNTLYLQMNSLKPEDTAVYTCAASAIGSGALRRFEYDYSGQGTQVTVSS
modifications: Nanobody, Nanobody constructs or fragments thereof
notes: bivalent Nanobody, 238D4 linked to 238D4 by a 20 amino acid GGGGS linker

Target: T1, CXCR4 (Homo sapiens, UniProt P61073)
T1 sequence (P61073 whole entry): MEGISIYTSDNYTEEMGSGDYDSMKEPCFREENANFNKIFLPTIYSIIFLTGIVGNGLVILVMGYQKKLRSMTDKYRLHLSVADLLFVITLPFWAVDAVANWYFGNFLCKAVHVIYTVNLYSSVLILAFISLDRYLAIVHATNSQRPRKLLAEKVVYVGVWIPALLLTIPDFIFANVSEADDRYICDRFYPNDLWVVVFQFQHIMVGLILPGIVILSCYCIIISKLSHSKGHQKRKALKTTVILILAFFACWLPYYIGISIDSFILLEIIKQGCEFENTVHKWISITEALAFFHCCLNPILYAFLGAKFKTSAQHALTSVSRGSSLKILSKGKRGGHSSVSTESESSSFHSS
Assay: [125I]-CXCL12 competition binding on membranes from HEK293T cells transiently expressing CXCR4
Details: [125I]-CXCL12 displacement; potency relative to those of monovalent 238D2
Description: (§1) HEK293T cells were maintained at 37° C. in a humidified 5% CO2, 95% air atmosphere in Dulbecco's modified Eagle's medium (DMEM) containing 2 mM L-glutamine, 50 IU/ml penicillin, 50 μg/ml streptomycin, and 10% (v/v) fetal calf serum. Jurkat cells were cultured in a humidified 5% CO2, 95% air atmosphere in a 1:1 mixture of Dulbecco's modified Eagle's medium (DMEM) and Ham's F12 medium containing 2 mM L-glutamine, 50 IU/ml penicillin, 50 μg/ml streptomycin, and 10% (v/v) fetal calf serum. […] [^125 I]-Labelling— Radiolabeling of Nanobodies with ^125I was performed using the Iodo-gen method (Pierce, Rockford, Ill.) according to the manufacturer's protocol. ^125I-labeled Nanobodies was separated from free iodine (>99%) using a Sephadex G-25 gel filtration column (Amersham Biosciences, Piscataway, N.J.). […] Competition Binding Assays— Membranes from HEK293T cells transiently expressing CXCR3 or CXCR4 were prepared 48 h after transfection as follows. Cells were washed and scraped from the cell culture dishes with ice-cold PBS containing 1 mm EDTA. The scraped cells were pelleted at 1500×g for 10 min at 4° C. The pellet was washed and then resuspended in ice-cold membrane buffer (15 mM Tris, pH 7.5, 1 mM EGTA, 0.3 mM EDTA, and 2 mM MgCl2). The cell suspension was homogenized by 10 strokes at 1200 rpm using a Teflon-glass homogenizer and rotor and further subjected to three freeze-thaw cycles using liquid nitrogen. Membranes were separated by centrifugation at 40,000 g for 25 min at 4° C. The membrane pellet was washed and resuspended in ice-cold Tris-sucrose buffer (20 mM Tris, pH 7.4, and 250 mM sucrose) and frozen in liquid nitrogen. The total protein was determined using a Bradford assay (Bio-Rad). […] Membranes were then harvested over polyethylenimine (0.5%)-treated Whatman GF/C filter plates and washed three times with ice cold binding buffer containing 500 mM NaCl. Plates were counted by liquid scintillation. Inositol Phosphate Accumulation Assay— 24 hours post transfection with pcDNA3.1-CXCR4 and pcDNA1-HA-mG {alpha} qi5 (see Verzijl et al, 2008 supra), 250.000 cells were seeded into 24-wells plates and labelled overnight using inositol-free minimal essential medium supplemented with 1 μCi myo-[2-^3H]-inositol. The next day, the cells were washed once to remove not incorporated myo-[2-^3H]-inositol. […] In agonist experiments, the cells were directly stimulated with test compounds and LiCl (10 mM) in assay buffer for 2 h at 37° C. The stimulation was stopped by aspirating the stimulation medium and adding ice-cold 10 mM formic acid. The accumulated inositol phosphates were isolated by anion exchange chromatography and counted by liquid scintillation. CRE Reporter Gene Assay— HEK239T cells were transfected with pCRE/β-galactosidase (Chen W, Shields T S, Stork P J S, Cone R D (1995) Anal Biochem 226:349-354) and plasmids (pcDEF3 or pcDNA3.1) encoding the indicated receptors. 40,000 transfected cells per well were seeded into 96 well plates and grown in DMEM supplemented with 10% fetal calf serum. The medium was replaced 32 h after transfection by serum-free DMEM supplemented with 0.5% bovine serum albumin and ligands as indicated. […] The β-galactosidase activity was determined by the measurement of absorption at 420 nm with a PowerwaveX340 plate reader (Bio-Tek Instruments Inc., Winooski, Vt.) after incubation with the assay buffer when the OD420 value for forskolin (3 μM) controls reached 0.4-0.6. Chemotaxis Assay— The chemotactic responsiveness of Jurkat 3D cells was assessed using ChemoTx™ plates (Receptor Technologies Ltd., Oxon, UK) in which a upper cell-containing compartment is separated from a lower chemoattractant-containing compartment by a polyvinylpyrollidone-free polycarbonate filter with 5-μm pores. Cells were harvested, washed and resuspended in RPMI containing 0.5% bovine serum albumin and then loaded to 150,000 cells per well in a volume of 25 μl into the upper compartment of the chemotaxis chamber.

Which “Rel. potency, relative to monovalent 238D2” value does the source give for B1 here?
The value was 0.18^a.

How did the “Rel. potency, relative to monovalent 238D2” value turn out when B2 was run?
The value was 14^a.

For B3, which “Rel. potency, relative to monovalent 238D2” value is on record?
The value was <0.1^a.

Same assay, conditions: at highest test concentration of 0.5 μM (footnote a: no significant displacement)

How did the “Displacem. (%) of [125I]-CXCL12 at 0.5 μM” value turn out when B4 was run?
Its value is 0^a %.

B5 was tested. Which “Displacem. (%) of [125I]-CXCL12 at 0.5 μM” value did it give?
Its value is 0^a %.

With B6 as the molecule, how does the “Displacem. (%) of [125I]-CXCL12 at 0.5 μM” value read?
Its value is 0^a %.

B7 was tested. Which “Displacem. (%) of [125I]-CXCL12 at 0.5 μM” value did it give?
Its value is 0^a %.

Same assay, conditions: in words

B8 was tested. Which “affinity to CXCR4” value did it give?
The value was “inactive”.

Same assay, conditions: maximum not reached at the highest test concentration of 0.5 μM, displacement at 0.5 μM

With B3 as the molecule, how does the “Displacem. (%) of [125I]-CXCL12 at 0.5 μM, bivalent Nanobodies” value read?
The value was 43 ± 11^c %.

Same assay, conditions: membranes from HEK293T cells transiently expressing CXCR4; mean ± S.E.M.

Which results are given for B1?
Displacem. (%) of [125I]-CXCL12 (maximal displacement), bivalent Nanobodies: 110 ± 2%; pKi, [125I]-CXCL12, bivalent Nanobodies: 7.35 ± 0.07

Which “Displacem. (%) of [125I]-CXCL12 (maximal displacement), bivalent Nanobodies” value does the source give for B2 here?
The value was 95 ± 5%.

What about the “pKi, [125I]-CXCL12, bivalent Nanobodies” value of the same molecule?
Its value is 9.16 ± 0.08.

Which “pKi, [125I]-CXCL12, bivalent Nanobodies” value does the source give for B3 here?
The value was less than 7.00.

How did the “Displacem. (%) of [125I]-CXCL12 (maximal displacement), bivalent Nanobodies” value turn out when B9 was run?
The value was 96 ± 5%.

Same assay, conditions: purified ligands; highest Nanobody test concentration 0.5 μM

How did the “displacement of specifically bound [125I]-CXCL12” value turn out when B4 was run?
The value was “unable to displace”.

Which “displacement of specifically bound [125I]-CXCL12” value does the source give for B5 here?
Its value is “unable to displace”.

For B6, which “displacement of specifically bound [125I]-CXCL12” value is on record?
The value was “unable to displace”.

How did the “displacement of specifically bound [125I]-CXCL12” value turn out when B7 was run?
Its value is “unable to displace”.

Same assay, conditions: screening of Nanobody clone pools; membranes from HEK293T cells transiently expressing CXCR4

Which “Binding (binding efficiency, competition binding with [125I]-CXCL12)” value (“Binding” for short) does the source give for B4 here?
Its value is “+ (+ = 30-69%)”.

Which “Binding” value does the source give for B5 here?
Its value is “+ (+ = 30-69%)”.

B6 was tested. Which “Binding” value did it give?
Its value is “+ (+ = 30-69%)”.

Target: T1, CXCR4
Assay: [125I]-238D2 competition binding on membranes from HEK293T cells transiently expressing CXCR4
Details: [125I]-238D2 3 nM
Description: as §1

Which “displacement of [125I]-238D2 from CXCR4” value does the source give for B4 here?
Its value is “unable to inhibit”.

With B5 as the molecule, how does the “displacement of [125I]-238D2 from CXCR4” value read?
The value was “unable to inhibit”.

Which “displacement of [125I]-238D2 from CXCR4” value does the source give for B6 here?
Its value is “unable to inhibit”.

B7 was tested. Which “displacement of [125I]-238D2 from CXCR4” value did it give?
Its value is “unable to inhibit”.

Same assay, conditions: at highest test concentration of 0.5 μM (footnote a: no significant displacement; b: maximum not reached)

For B4, which “Displacem. (%) of [125I]-238D2 at 0.5 μM” value is on record?
The value was 0^a %.

With B5 as the molecule, how does the “Displacem. (%) of [125I]-238D2 at 0.5 μM” value read?
The value was 0^a %.

With B6 as the molecule, how does the “Displacem. (%) of [125I]-238D2 at 0.5 μM” value read?
The value was 0^a %.

B7 was tested. Which “Displacem. (%) of [125I]-238D2 at 0.5 μM” value did it give?
The value was 0^a %.

Target: T1, CXCR4
Assay: [125I]-238D4 competition binding on membranes from HEK293T cells transiently expressing CXCR4
Details: [125I]-238D4 3 nM
Description: as §1

With B4 as the molecule, how does the “displacement of [125I]-238D4 from CXCR4” value read?
The value was “unable to inhibit”.

With B5 as the molecule, how does the “displacement of [125I]-238D4 from CXCR4” value read?
The value was “unable to inhibit”.

Which “displacement of [125I]-238D4 from CXCR4” value does the source give for B6 here?
The value was “unable to inhibit”.

B7 was tested. Which “displacement of [125I]-238D4 from CXCR4” value did it give?
The value was “unable to inhibit”.

Same assay, conditions: at highest test concentration of 0.5 μM (footnote a: no significant displacement; b: maximum not reached)

With B4 as the molecule, how does the “Displacem. (%) of [125I]-238D4 at 0.5 μM” value read?
The value was 0^a %.

B5 was tested. Which “Displacem. (%) of [125I]-238D4 at 0.5 μM” value did it give?
The value was 0^a %.

B6 was tested. Which “Displacem. (%) of [125I]-238D4 at 0.5 μM” value did it give?
The value was 0^a %.

B7 was tested. Which “Displacem. (%) of [125I]-238D4 at 0.5 μM” value did it give?
The value was 0^a %.
